B1: CIB2-V5 (calcium and integrin-binding protein 2, V5 tagged, wild type) [human] / TMC1-EGFP (EGFP tagged human full length TMC1) [human] (parent complex)
chain 1: MGNKQTIFTEEQLDNYQDCTFFNKKDILKLHSRFYELAPNLVPMDYRKSPIVHVPMSLIIQMPELRENPFKERIVAAFSEDGEGNLTFNDFVDMFSVLCESAPRELKANYAFKIYDFNTDNFICKEDLELTLARLTKSELDEEEVVLVCDKVIEEADLDGDGKLGFADFEDMIAKAPDFLSTFHIRI
chain 2: MSPKKVQIKVEEKEDETEESSSEEEEEVEDKLPRRESLRPKRKRTRDVINEDDPEPEPEDEETRKAREKERRRRLKRGAEEEEIDEEELERLKAELDEKRQIIATVKCKPWKMEKKIEVLKEAKKFVSENEGALGKGKGKRWFAFKMMMAKKWAKFLRDFENFKAACVPWENKIKAIESQFGSSVASYFLFLRWMYGVNMVLFILTFSLIMLPEYLWGLPYGSLPRKTVPRAEEASAANFGVLYDFNGLAQYSVLFYGYYDNKRTIGWMNFRLPLSYFLVGIMCIGYSFLVVLKAMTKNIGDDGGGDDNTFNFSWKVFTSWDYLIGNPETADNKFNSITMNFKEAITEEKAAQVEENVHLIRFLRFLANFFVFLTLGGSGYLIFWAVKRSQEFAQQDPDTLGWWEKNEMNMVMSLLGMFCPTLFDLFAELEDYHPLIALKWLLGRIFALLLGNLYVFILALMDEINNKIEEEKLVKANITLWEANMIKAYNASFSENSTGPPFFVHPADVPRGPCWETMVGQEFVRLTVSDVLTTYVTILIGDFLRACFVRFCNYCWCWDLEYGYPSYTEFDISGNVLALIFNQGMIWMGSFFAPSLPGINILRLHTSMYFQCWAVMCCNVPEARVFKASRSNNFYLGMLLLILFLSTMPVLYMIVSLPPSFDCGPFSGKNRMFEVIGETLEHDFPSWMAKILRQLSNPGLVIAVILVMVLAIYYLNATAKGQKAANLDLKKKMKMQALENKMRNKKMAAARAAAAAGRQ

Variants of: B1
Assay: FRET; cells co-expressing EGFP tagged human TMC1 (donor) and V5 tagged human CIB2; parent: 22; read off a plot

| response | Variant |
| --- | --- |
| ~18% | chain 1 MGNKQTIFTEEQLDNYQDCTFFNKKDILKLHSRFYELAPNLVPMDYRKSPIVHVPMSLIIQMPELRENPFKERIVAAFSEDGEGNLTFNDFVDMFSVLCESAPRELKANYAFKIYDFNTDNFTCKEDLELTLARLTKSELDEEEVVLVCDKVIEEADLDGDGKLGFADFEDMIAKAPDFLSTFHIRI [chain 1 I123T] |
| ~19% | chain 1 MGNKQTIFTEEQLDNYQDCTFFNKKDILKLHSRFYELAPNLVPMDYRKSPIVHVPMSLIIQMPELWENPFKERIVAAFSEDGEGNLTFNDFVDMFSVLCESAPRELKANYAFKIYDFNTDNFICKEDLELTLARLTKSELDEEEVVLVCDKVIEEADLDGDGKLGFADFEDMIAKAPDFLSTFHIRI [chain 1 R66W] |
| ~19% | chain 1 MGNKQTIFTEEQLDNYQDCTFFNKKDILKLHSRFYELAPNLVPMDYRKSPIVHVPMSLIIQMPELRENPFKERIVAAFSEDGEGNLTFNDFVDMFSVLCESAPRELKANYAFKIYDFNTDNFICKEDLELTLARLTKSELDEEEVVLVCDKVIEEADLDGDGKLGFADFEDMIAKAPDFLSTFHIWI [chain 1 R186W] |

Further lines, the variant ahead of its results:

| Variant | response |
| --- | --- |
| chain 1 MGNKQTIFTEEQLDNYQDCTFFNKKDILKLHSRFYELAPNLVPMDYRKSPIVHVPMSLIIQMPELRENPFKERIVAAFSEDGEGNLTFNDFVDMFSVLWESAPRELKANYAFKIYDFNTDNFICKEDLELTLARLTKSELDEEEVVLVCDKVIEEADLDGDGKLGFADFEDMIAKAPDFLSTFHIRI [chain 1 C99W] | ~5% |
| chain 1 MGNKQTIFTEEQLDNYQDCTFFNKKDILKLHSRFYELAPNLVPMDYRKSPIVHVPMSLIIQMPELRENPFKERIVAAFSEDGEGNLTFNDSVDMFSVLCESAPRELKANYAFKIYDFNTDNFICKEDLELTLARLTKSELDEEEVVLVCDKVIEEADLDGDGKLGFADFEDMIAKAPDFLSTFHIRI [chain 1 F91S] | ~3% |
| chain 1 MGNKQTIFTEEQLDNYQDCTFFNKKDILKLHSRFYELAPNLVPMDYRKSPIVHVPMSLIIQMPDLRENPFKERIVAAFSEDGEGNLTFNDFVDMFSVLCESAPRELKANYAFKIYDFNTDNFICKEDLELTLARLTKSELDEEEVVLVCDKVIEEADLDGDGKLGFADFEDMIAKAPDFLSTFHIRI [chain 1 E64D] | ~6.5% |

— paper PMC5491523 (2017)
